Publication PMC7474069, “Cystathionine β-synthase is involved in cysteine biosynthesis and H2S generation in Toxoplasma gondii” (Scientific Reports, 2020)
Where “and” joins values, the source holds several entries; their conditions need not be identical. Equal entries are not always repeated.

Experiments:
[1] = biological target: T1, TgCBS (Toxoplasma gondii, UniProt A0A125YSJ9); experiment: lead acetate H2S assay, substrate competition; assay type: biochemical
T1 construct: gene TGME49_259180; mainly dimer with some tetramer; no heme, PLP at Lys56
T1 sequence (A0A125YSJ9 1-514): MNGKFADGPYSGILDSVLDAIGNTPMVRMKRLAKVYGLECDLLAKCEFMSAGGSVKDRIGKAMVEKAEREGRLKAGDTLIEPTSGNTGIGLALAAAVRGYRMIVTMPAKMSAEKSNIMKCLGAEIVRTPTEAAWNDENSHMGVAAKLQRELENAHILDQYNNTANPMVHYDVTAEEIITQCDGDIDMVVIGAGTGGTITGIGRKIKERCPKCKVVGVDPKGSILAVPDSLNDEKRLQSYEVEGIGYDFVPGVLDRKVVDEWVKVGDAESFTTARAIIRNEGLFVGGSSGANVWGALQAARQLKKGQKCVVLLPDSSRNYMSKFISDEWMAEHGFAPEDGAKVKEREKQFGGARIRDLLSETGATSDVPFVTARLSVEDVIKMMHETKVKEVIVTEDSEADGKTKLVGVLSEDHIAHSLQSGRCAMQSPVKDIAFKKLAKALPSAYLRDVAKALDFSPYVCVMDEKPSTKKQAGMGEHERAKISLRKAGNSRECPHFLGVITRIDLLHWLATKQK
Source text: lead acetate H2S assay, substrate competition on TgCBS | The IC50 value, i.e. the concentration of L-Ser at which the H2S production

[2] = biological target: T1, TgCBS; experiment: intrinsic fluorescence titration of apo-enzyme; assay type: binding
[3] = biological target: T1, TgCBS; experiment: CD spectroscopy (external aldimine formation); assay type: binding; details: 25 mM; 20 mM sodium phosphate pH 8.5; 25 °C; substrate analog
[4] = biological target: T1, TgCBS; experiment: CD spectroscopy (aminoacrylate formation); assay type: binding; details: 3 mM; 20 mM sodium phosphate pH 8.5; 25 °C
[5] = biological target: T1, TgCBS; experiment: lead acetate H2S assay, biphasic fit; assay type: biochemical; details: substrate inhibition in beta-elimination; L-Cys alone; 50 mM Hepes pH 7.4; 37 °C; PLP 20 µM
Source text: (§1) lead acetate H2S assay, biphasic fit on TgCBS

[6] = test system: N[C@@H](CCSC[C@H](N)C(=O)O)C(=O)O; experiment: purified protein; details: CBS coupled-assay conditions (MBP buffer pH 9; 37 °C)
[7] = test system: N[C@@H](CO)C(=O)O; experiment: purified protein; details: CBS coupled-assay conditions (MBP buffer pH 9; 37 °C)
[8] = substrate: CC(=O)OC[C@H](N)C(=O)O; experiment: purified protein; assay type: biochemical, Toxoplasma gondii; details: co-substrate L-Hcys, MBP buffer pH 9, 37 °C, PLP 20 µM
[9] = substrate: N[C@@H](CO)C(=O)O; experiment: purified protein; assay type: biochemical, Toxoplasma gondii; details: co-substrate L-Hcys, MBP buffer pH 9, 37 °C, PLP 20 µM
[10] = substrate: N[C@@H](CCS)C(=O)O; experiment: purified protein; assay type: biochemical, Toxoplasma gondii; details: co-substrate L-Ser, MBP buffer pH 9, 37 °C, PLP 20 µM
[11] = substrate: N[C@@H](CS)C(=O)O; experiment: lead acetate H2S assay, biphasic fit; assay type: biochemical, Toxoplasma gondii; details: beta-elimination of L-Cys alone, site 1, 50 mM Hepes pH 7.4, 37 °C, PLP 20 µM
Source text: as §1

[12] = biological target: the molecule itself; experiment: SEC; Superdex 200 10/30 GL, TgCBS at 1 mg/mL, 20 mM sodium phosphate pH 8.5, 150 mM NaCl, 0.1 mM DTT; masses from a calibration curve of standard proteins

## N[C@@H](CO)C(=O)O [L-Ser]
[1]
  IC50: 6.7 ± 1.3 mM

## Cc1ncc(COP(=O)(O)O)c(C=O)c1O [PLP]
[2]
  Kd: 0.00013 ± 1e-05 mM

## C[C@H](N)C(=O)O [L-Ala]
[3]
  CD spectroscopy (external aldimine formation): Addition of the analog L-alanine (L-Ala) to TgCBS resulted in a shift

## NC(CSCC(N)C(=O)O)C(=O)O (stereo not shown) [lanthionine]
[4]
  CD spectroscopy (aminoacrylate formation): Binding of lanthionine to the enzyme

## N[C@@H](CS)C(=O)O [L-Cys]
[5]
  TgCBS: 36 ± 4 mM

## recombinant CBL (Corynebacterium diphtheriae NCTC 13129)
[6]
  Km: 800 ± 100 µM
  kcat: 93 ± 2 s⁻¹
[7]
  Km: 7500 ± 1400 µM
  kcat: 1.2 ± 0.2 s⁻¹

B1: TgCBS (Toxoplasma gondii ME49) (protein)
chain: MNGKFADGPYSGILDSVLDAIGNTPMVRMKRLAKVYGLECDLLAKCEFMSAGGSVKDRIGKAMVEKAEREGRLKAGDTLIEPTSGNTGIGLALAAAVRGYRMIVTMPAKMSAEKSNIMKCLGAEIVRTPTEAAWNDENSHMGVAAKLQRELENAHILDQYNNTANPMVHYDVTAEEIITQCDGDIDMVVIGAGTGGTITGIGRKIKERCPKCKVVGVDPKGSILAVPDSLNDEKRLQSYEVEGIGYDFVPGVLDRKVVDEWVKVGDAESFTTARAIIRNEGLFVGGSSGANVWGALQAARQLKKGQKCVVLLPDSSRNYMSKFISDEWMAEHGFAPEDGAKVKEREKQFGGARIRDLLSETGATSDVPFVTARLSVEDVIKMMHETKVKEVIVTEDSEADGKTKLVGVLSEDHIAHSLQSGRCAMQSPVKDIAFKKLAKALPSAYLRDVAKALDFSPYVCVMDEKPSTKKQAGMGEHERAKISLRKAGNSRECPHFLGVITRIDLLHWLATKQK
notes: mainly dimer with some tetramer; no heme, PLP at Lys56
[8]
  Km: 1300 ± 200 µM
  kcat: 5.5 ± 0.1 s⁻¹
  kcat/Km: 4200 ± 700 M⁻¹ s⁻¹
[9]
  Km: 420 ± 40 µM
  kcat: 6.3 ± 0.4 s⁻¹
  kcat/Km: 15000 ± 2000 M⁻¹ s⁻¹
[10]
  Km: 230 ± 30 µM
  kcat: 6.3 ± 0.4 s⁻¹
  kcat/Km: 27000 ± 5000 M⁻¹ s⁻¹
[11]
  Km: 4700 ± 900 µM
  kcat: 2.6 ± 0.3 s⁻¹
  kcat/Km: 600 ± 200 M⁻¹ s⁻¹

B2: Cystathionine β-synthase from Toxoplasma gondii (enzyme, Toxoplasma gondii (strain ME49), UniProt A0A125YSJ9 1-514, looked up)
chain: MNGKFADGPYSGILDSVLDAIGNTPMVRMKRLAKVYGLECDLLAKCEFMSAGGSVKDRIGKAMVEKAEREGRLKAGDTLIEPTSGNTGIGLALAAAVRGYRMIVTMPAKMSAEKSNIMKCLGAEIVRTPTEAAWNDENSHMGVAAKLQRELENAHILDQYNNTANPMVHYDVTAEEIITQCDGDIDMVVIGAGTGGTITGIGRKIKERCPKCKVVGVDPKGSILAVPDSLNDEKRLQSYEVEGIGYDFVPGVLDRKVVDEWVKVGDAESFTTARAIIRNEGLFVGGSSGANVWGALQAARQLKKGQKCVVLLPDSSRNYMSKFISDEWMAEHGFAPEDGAKVKEREKQFGGARIRDLLSETGATSDVPFVTARLSVEDVIKMMHETKVKEVIVTEDSEADGKTKLVGVLSEDHIAHSLQSGRCAMQSPVKDIAFKKLAKALPSAYLRDVAKALDFSPYVCVMDEKPSTKKQAGMGEHERAKISLRKAGNSRECPHFLGVITRIDLLHWLATKQK
modifications: PLP bound to active site Lys56 (internal aldimine)
notes: Cystathionine β-synthase, Toxoplasma gondii strain ME49, gene TGME49_259180 (ToxoDB), complete cDNA as a synthetic gene; 514 amino acids (55.8 kDa); Cloned into pET21a (NdeI/BamHI); Mainly a dimer in solution, with some higher-order oligomers (e.g. tetramer); also called TgCBS; T. gondii CBS; source: E. coli Rosetta (DE3), purified (Ni-sepharose)
[12]
  stoichiometry N: 2 and 4
